According to PMC12149299 (Cell Discovery, 2025):

Legend:
[1] = target: HIV-1 Env on TNF-α-activated ACH-2 latent HIV-1 cells (HIV-1 group M subtype B, BRU/LAI (ACH-2 …, UniProt P03377, strain)); assay: flow cytometry on cells; details: one partner purified
[2] = target: T1, HIV Env on HL2/3 cells (HIV-1 group M subtype B, HXB2 (stand-in …, UniProt P04578, strain)); assay: flow cytometry on cells; details: one partner purified
T1 construct: source: HL2/3 cells (NIH AIDS Program), expressing HIV Env, on the cell surface

[3] = target: T2, HIV-1 gp120 protein from the JRCSF.JB strain (HIV-1 group M subtype B, JRCSF (clone …, UniProt P20871, strain)); assay: ELISA; antigens (2 μg/mL) coated on 96-well plates overnight at 4 °C; antibodies serially diluted in disruption buffer, 1 h; HRP goat anti-human IgG, ABTS, 405 nm; details: both partners purified
[4] = target: HIV-1 gp120 protein from the YU2.DG strain (HIV-1 group M subtype B, YU-2 (clone …, UniProt P35961, strain)); assay: as above; details: both partners purified
[5] = target: HIV-1 gp120 protein from the BaL.01 strain (HIV-1 subtype B, BaL.01, UniProt Q2MKA9, strain); assay: as above; details: both partners purified
[6] = target: T2, HIV-1 gp120 protein from the JRCSF.JB …; assay: ELISA; details: both partners purified

Measured: binding result

B1: FD22 (antibody, V domains shown)
VH: QVQLSQSGGGAVQPGKSLTLSCRAYGFHLFSYVVVWVRQTPQNGLEWVAGAASGGWPQEFMNSVRGRFSISRDDYTVSLQMNALRVDDSGLYFCAQERGLHRLDGAVKFGRWFRAWGQGSQVVVTS
VL: QSALTQPASVSGSPGQSITLSCTGADNSVSWYQVVPGRAPKLLIFEVNVRPSEVSDRFSGSKSGDTASLTISRLQIEDESDYYCVTRRGDVTYLFGSGTRVSVL
notes: also called FD22-biotin
not listed: [6]
binds: all other assays above

B2: CH235.12 (antibody, V domains shown)
VH: QVRLAQYGGGVKRLGATMTLSCVASGYTFNDYYIHWVRQAPGQGFELLGYIDPANGRPDYAGALRERLSFYRDKSMETLYMDLRSLRYDDTAMYYCVRNVGTAGSLLHYDHWGSGSPVIVSS
VL: EIVLTQSPATLSASPGERVTLTCRASRSVRNNVAWYQHKGGQSPRLLIYDASTRAAGVPARFSGSASGTEFTLAISNLESEDFTVYFCLQYNNWWTFGQGTRVDIK
binds: [6]
